Data published in patent publication US20100104568A1 (published 2010).

Experiments:
[1] = target: human RANK-L, full length, membrane-bound, expressed on HEK293T cells (human) (UniProt O14788); experiment: FACS, HEK293T with human RANK-L, 16 pM Nanobody
[2] = target: human RANK-L, full length, membrane-bound, expressed on HEK293T cells (human) (UniProt O14788); experiment: FACS, HEK293T with human RANK-L, 80 pM Nanobody
[3] = target: human RANK-L, full length, membrane-bound, expressed on HEK293T cells (human) (UniProt O14788); experiment: FACS, HEK293T with human RANK-L, 3.2 pM Nanobody
[4] = target: human RANK-L, full length, membrane-bound, expressed on HEK293T cells (human) (UniProt O14788); experiment: FACS, HEK293T with human RANK-L, 400 pM Nanobody
[5] = target: human RANK-L, full length, membrane-bound, expressed on HEK293T cells (human) (UniProt O14788); experiment: FACS, HEK293T with human RANK-L, 2000 pM Nanobody
[6] = target: cynomolgus RANK-L, full length, membrane-bound, expressed on HEK293T cells (cynomolgus monkey); experiment: FACS, HEK293T with cynomolgus RANK-L, 400 pM Nanobody
[7] = target: cynomolgus RANK-L, full length, membrane-bound, expressed on HEK293T cells (cynomolgus monkey); experiment: FACS, HEK293T with cynomolgus RANK-L, 2000 pM Nanobody
[8] = target: T1, human RANK-L (human, UniProt O14788 140-317); experiment: cell-based or functional assay
T1 chain: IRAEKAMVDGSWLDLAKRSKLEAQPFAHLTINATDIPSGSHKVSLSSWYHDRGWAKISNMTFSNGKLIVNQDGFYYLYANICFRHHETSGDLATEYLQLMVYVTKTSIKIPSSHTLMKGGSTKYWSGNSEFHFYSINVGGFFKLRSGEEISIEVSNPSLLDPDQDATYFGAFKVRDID

[9] = target: T1, human RANK-L; experiment: competition ELISA
[10] = target: T1, human RANK-L; experiment: competition ELISA

## irrelevant Nanobody (VHH)
[1]
  PE mean fluorescence: 77
[2]
  PE mean fluorescence: 82
[3]
  PE mean fluorescence: 84
[4]
  PE mean fluorescence: 90
[5]
  PE mean fluorescence: 87
[6]
  PE mean fluorescence: 140
[7]
  PE mean fluorescence: 149

B1: osteoprotegerin (receptor, UniProt O00300 22-401, looked up)
chain: ETFPPKYLHYDEETSHQLLCDKCPPGTYLKQHCTAKWKTVCAPCPDHYYTDSWHTSDECLYCSPVCKELQYVKQECNRTHNRVCECKEGRYLEIEFCLKHRSCPPGFGVVQAGTPERNTVCKRCPDGFFSNETSSKAPCRKHTNCSVFGLLLTQKGNATHDNICSGNSESTQKCGIDVTLCEEAFFRFAVPTKFTPNWLSVLVDNLPGTKVNAESVERIKRQHSSQEQTFQLLKLWKHQNKDQDIVKKIIQDIDLCENSVQRHIGHANLTFEQLRSLMESLPGKKVGAEDIEKTIKACKPSDQILKLLSLWRIKNGDQDTLKGLMHALKHSKTYHFPKTVTQSLKKTIRFLHSFTMYKLYQKLFLEMIGNQVQSVKISCL
[8]
  IC50, RANK-L induced NF-kappaB reporter (luciferase) in HEK293T: 6.03 nM

B2: RANKL003p (VHH)
chain: EVQLVESGGGLVQPGGSLRLSCAASGRTFSRSAMGWFRQAPGKGREFVGFITGSGGTTYYADSVKGRFTISRDNAQNPVYLQMNSLRPEDTAVYYCAVYRRTYISSTYSESSEYDYWGQGTLVTVSSGGGGSGGGGSGGGGSGGGGSGGGGSGGGGSEVQLVESGGGLVQPGGSLRLSCAASGRTFSRSAMGWFRQAPGKGREFVGFITGSGGTTYYADSVKGRFTISRDNAQNPVYLQMNSLRPEDTAVYYCAVYRRTYISSTYSESSEYDYWGQGTLVTVSSGGGC
modifications: PEGylated with maleimide PEG, average MW 40,000; residue not stated (the entry ends in GGGC)
[9]
  EC50: 0.0409 nM

B3: RANKL001p (VHH)
chain: EVQLVESGGGLVQPGGSLRLSCAASGFTFSSYPMGWFRQAPGKGREFVSSITGSGGSTYYADSVKGRFTISRDNAKNTLYLQMNSLRPEDTAVYYCAAYIRPDTYLSRDYRKYDYWGQGTLVTVSSGGGGSGGGSEVQLVESGGGLVQPGGSLRLSCAASGFTFSSYPMGWFRQAPGKGREFVSSITGSGGSTYYADSVKGRFTISRDNAKNTLYLQMNSLRPEDTAVYYCAAYIRPDTYLSRDYRKYDYWGQGTLVTVSSGGGC
modifications: PEGylated with maleimide PEG, average MW 40,000; residue not stated (the entry ends in GGGC)
[10]
  IC50: 0.0465 nM
